This is an account of results in the nanobody polyreactivity screen of Harvey et al. (2022).

The series can be described thus: yeast display, Sf9 membrane polyspecificity reagent, FACS + sequencing; frameworks hold sequencing errors. The gist of the method: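 Nanobodies from a synthetic yeast display library (Saccharomyces cerevisiae BJ5465), induced 36–48 hours with galactose, were stained 1 hour at 4 °C with 10% biotinylated, detergent-solubilized Sf9 membrane reagent, enriched on streptavidin microbeads, then FACS-sorted. Anti-HA (expression) and streptavidin (reagent binding) fluorescence set low and high (top ~1%) gates. Polyreactivity labels come from the gate of origin. Genes were colony-PCR amplified, MiSeq 2 × 250 sequenced and filtered by CDR length.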
Take “QVQLVESGGGLVQAGGSLRLSCAAYGRTLRPYAMGWYRQAPGKERELVASIRRDGSTYADSVKGRYTISLDNAKNTVYLQMNSLKPEDTAVYYCAAARGYPLSYWGQGTQVTVSS”: the “polyreactivity (PSR sort gate)” value is listed as “low polyreactivity”.
For “QVQLVESGGGLVQAGGSLRLSCAAYGSIFDHYAMVWNRQAPGKERELVAAITYSDGSTYYADSVKGRFTISRDNAKNTVYLQMKSLKPEDTAVYYCAAYPRGSQRYNYWGQGTQVTVSS”, the “polyreactivity (PSR sort gate)” value is given as “high polyreactivity”.
For the sequence “QVQLVESGGGLVQAGGSLRLSCAAYGSIFDVHAMGWNRQAPGKERELVAAISDSGGSTYYADSVKGRFTISRDNAKNTVYLLMKSLKPDDTAVYYCNADWSWFNYYDFDYWGQGTHVTVSS”, the “polyreactivity (PSR sort gate)” value is reported as “low polyreactivity”.
As for “QVQLVESGGGLVQAGGSLRLSCAAYGSIFSTYAMGWYRQAPGKERELVAAISRSGGSTYYADSVKGRFTISRDNAKNTVYLQMNSLKPEDTAVYYCAKVGRRQRYDYWGQGTQVTVSS”, the “polyreactivity (PSR sort gate)” value is on record as “high polyreactivity”.
Consider “QVQLVESGGGLVQAGGSLRLSCAAYGSIFWYYAMGWYRQAHGKERELVAAISASGSSTYYADSVKGRLTISRDNAKNPVYLQMNSLNPEDTAVYYCAGTYILYNDWLYHYFPEEYDSWGQGTQVTVSS”, for which the “polyreactivity (PSR sort gate)” value is given as “low polyreactivity”.
For “QVQLVESGGGLVQAGGSLRLSCAAYGSIFYWYAMGWYRQAPGKERELVAAISSSNDSTDYADSVKGRFTISRDNAKNTVYLQMNSLKPEDTAVYYCAALYGTIQYDYWGQGTQVTVSS”, the “polyreactivity (PSR sort gate)” value is “low polyreactivity”.
As for “QVQLVESGGGLVQAGGSLRLSCAAYGSIYSKYAMGWYRQAPGKEREMDAAISWSDGTTYYADSVKGLFTISRDNAKYTVYLQLNSLKPEDTAVYYCNTPPQWLGRYITITFDYWGQGSQVTVSS”, the entry is “low polyreactivity”; as for “QVQLVESGGGLVQAGGSLRLSCAAYGSTFGYNAMGWYRQAPGKESELVAAISSTSGSTYYADSVKGRFTISRDNAKNTVYLQMNSLKPEDTAVYYCAADDGDTNAYYFWKPYYYWGQGTQVTVSS”, “low polyreactivity”.
As to “QVQLVESGGGLVQAGGSLRLSCAAYGSTFNGNAMGWYRQAPGKERELVARISFDGTSTYYADSVKGRFTISRDNAKNTVYLQMNSLKPEDTAVYYCNVMFPRDHGFPGYGYWGQGTQVTVSS”, the “polyreactivity (PSR sort gate)” value is “low polyreactivity”.
Consider “QVQLVESGGGLVQAGGSLRLSCAAYGSTFRRYGMGWYRQAPGKERELVAAISKGGTRTYYADSVKGRFTISRDNVKNTVYLQMNSLKPEDTAVYYCAAAGASSSTPQKEDYWGQGTQVTVSS”, for which the “polyreactivity (PSR sort gate)” value was “high polyreactivity”.
With “QVQLVESGGGLVQAGGSLRLSCAAYGSTFSRYAMGWYRQAPGKERELVAAISWGGNTYYADSVKGRFTISRDNAKNTVYLQMNSLKPEDTAVYYCASVGGRFFAPYIWSVDSYDYWGQGTQVTVSS”, the “polyreactivity (PSR sort gate)” value is given as “high polyreactivity”.
On to “QVQLVESGGGLVQAGGSLRLSCAAYGSTFSWYTMGWYRQAPGKERELVAAISWSGGRTYYADSVKGRFTISRDNAKNTVYLQMNSLKPEDTAVYYCAAYDYRYSLGDYQFYYWGQGTQVTVSS”, for which the “polyreactivity (PSR sort gate)” value was “low polyreactivity”.
“QVQLVESGGGLVQAGGSLRLSCAAYGSTITYYPMGWYRQAPGKERELVAAISGSGRTHYADSVKGRFTISRDNAKNTVYLQMISLNPEDTAVYYCNARQYTYNYAFTRCKYDYWGQGTQVTVSS”: the “polyreactivity (PSR sort gate)” value is “high polyreactivity”.
Then “QVQLVESGGGLVQAGGSLRLSCAAYGYIIDRYAMGWYRPAPGKERELVAAISSDGSTYYADSVKGRFTISRDNAKNTVYLQMNSLKPEDTAVYYGAADGGESAWGGYDYWGQGSQVTVSS”, with “low polyreactivity”.
As for “QVQLVESGGGLVQAGGSLRLSCAAYGYTFRYNAMGWYRQAPGKERELVATITRGGSTNYADSVKGRFTISRDNAKNTVYLQMNSLKPEDTAVYYCNKEAAPRGFVPSYYGRDYWGQGTQVTVSS”, the “polyreactivity (PSR sort gate)” value is “low polyreactivity”.
Then “QVQLVESGGGLVQAGGSLRLSCADSARTFNWNAMGWYRQAHGKERELVATISRRGGSTYYADSVKGRFTISRDNAKNTVYLQMNSLKPEDTAVYDCNTAGRYGYDYWGQGTQVTVSS”, with “high polyreactivity”; and “QVQLVESGGGLVQAGGSLRLSCADSGFIFGYYAMGWYRQAPGKERELVAAINKNGGSTYYADSVKGRFTISRDNAKNTVYLQMNSLKPEDTAVYYCAARARGYAWTFDYWGQGTQVTVSS”, with “high polyreactivity”.
As for “QVQLVESGGGLVQAGGSLRLSCADSGFIIGRYTMGWYRQAPGKERELVAAISFRGGSTYYADSVKGRFTISRDNAKNTVYLQMNCLKPEDTAVYYCAAYSSGPYGFDYWGQGTQVTVSS”, the entry is “high polyreactivity”; as for “QVQLVESGGGLVQAGGSLRLSCADSGFTCYYYTMGWNRPAPWKGRELVAAISWSGGSTYYADSVKGRFTISRDNAKNTVYLQMNSLKPEDPAVYYCNKAYPGRTYDYWGQGSQVTVSS”, “high polyreactivity”.
As to “QVQLVESGGGLVQAGGSLRLSCADSGFTFDWYAMGWYRQAPGKERELVAAISGRGGSTYYADSVKGRFTISRDNAKNTVYLQMNSLKPEDTAVYDCNAVYGAYRYEYWGQGTQVTVSS”, the “polyreactivity (PSR sort gate)” value is “high polyreactivity”.
With “QVQLVESGGGLVQAGGSLRLSCADSGFTFYRYARGWYRQAPGKERELVADITSGGSTNYADSVKGRFTISRDNAKNTVYLQMNSLKPEDTAVYYCNADRWYGSVYRYGYWGQGTQVTVSS”, the “polyreactivity (PSR sort gate)” value is on record as “high polyreactivity”.
As to “QVQLVESGGGLVQAGGSLRLSCADSGFTLNAMGWYRHAPGKERELVAAITTGGRTYYADSVKGRFTISRDNAKNTVYLQMNSLKPEDTAVYYCGAHTYYYPVGFNYWGQGTQVTVSS”, the “polyreactivity (PSR sort gate)” value is recorded as “low polyreactivity”.
As to “QVQLVESGGGLVQAGGSLRLSCADSGHIFFYYTMGWYRQAPGKEREMVAGITIGGSTNYADSVKVRFTISRDNAKNTVYLQMNSLKPEDTAVYYCNVVKYVYIYSYSEYYYWGQGTQVTVSS”, the “polyreactivity (PSR sort gate)” value was “low polyreactivity”.
For the sequence “QVQLVESGGGLVQAGGSLRLSCADSGITFVTYAMGWYRQAPGKERELVAAISRSGGRTYYADYVKGRFTISRENAKNTVYLQMNSLKPEDTAVYYCAAERKNKYDYWVQGTQVTVSS”, the “polyreactivity (PSR sort gate)” value is listed as “high polyreactivity”.
For the sequence “QVQLVESGGGLVQAGGSLRLSCADSGITLYYNAMGWYRQAPGKERELVAAISWSGDSTYYADSVKGRFTISRDNAKNTVYLQMNSLKPEDTAVYYCAADRYTYYHYAWYEYWGQGTQVTVSS”, the “polyreactivity (PSR sort gate)” value is “low polyreactivity”.
“QVQLVESGGGLVQAGGSLRLSCADSGLIFEDYAMGWYRQAPGKERELVAAIDWGGGSTYYADSVKGRFTISRDNAKNTVYLQMNSLKPEDTAVYYCAADSYFSYRYNYWGQGTQVTVSS”: the “polyreactivity (PSR sort gate)” value is recorded as “low polyreactivity”.
On to “QVQLVESGGGLVQAGGSLRLSCADSGLIFQYYVMVWYRQAQGKERELVAAISARGGGTYYADSVKGRFTISRDNAKNTVYLPMNSLKPEVTAVYYCAAHQVYAGPGYDYWGQGTQVTVSS”, for which the “polyreactivity (PSR sort gate)” value was “high polyreactivity”.
Consider “QVQLVESGGGLVQAGGSLRLSCADSGLIFRHYAMGWYRQAPGKERELVASISYRGGSTYYADSVKGRFTISRDNPKNTVYLQMNSLKPEDTAVDYCAADTYYPTYWSVTYGYDYWGQGTQVTVSS”, for which the “polyreactivity (PSR sort gate)” value is on record as “low polyreactivity”.
Turning to “QVQLVESGGGLVQAGGSLRLSCADSGLIFTQYAMGWYIQAPGKEREFVAAITWNGGRTYYADSVKGRFTISRDNAKNTVYLQMNSLKPEDTAVYYCATRNTRFHLDYWGQGTQVTVSS”, the “polyreactivity (PSR sort gate)” value is given as “high polyreactivity”.
For “QVQLVESGGGLVQAGGSLRLSCADSGLTFRRYAMGWYRQAPGKERELVAAITRGGSTNYADSVKGRFTISRVNAKNTVYLQMNSLKPEDTAVYFCAAVYSTRSTSYWMDYWGQGTQVTVSS”, the “polyreactivity (PSR sort gate)” value is “high polyreactivity”.
Take “QVQLVESGGGLVQAGGSLRLSCADSGRIFASYAMGWYRQAPRKERELVAAISWRGGTTYYADSVKGRFTSSRDNAKNTVYLQMNSLKPEDTAVYYCATTSSLGSWGYDYWGQGTQVTVSS”: the “polyreactivity (PSR sort gate)” value is “high polyreactivity”.
On to “QVQLVESGGGLVQAGGSLRLSCADSGRIFRYYAMGWYRQAPGKERELVAAITWSGGTTIYADSVKGRFSISRDNAKNTVYLQMNSLKPEDTAVYYCNAARSRGANLVPPYRLYYWGQGTQVTVSS”, for which the “polyreactivity (PSR sort gate)” value is recorded as “low polyreactivity”.
On to “QVQLVESGGGLVQAGGSLRLSCADSGRIYGIYAMGWYRQAPGKERELVAAITNIGGRTYYADSVKGRFTISRDNAKNTVYLQMNSLKPEDTAVYYCAKRWRRRFVDVWSLYDYWGQGTQVTVSS”, for which the “polyreactivity (PSR sort gate)” value is listed as “low polyreactivity”.
Regarding “QVQLVESGGGLVQAGGSLRLSCADSGRTFGPNAMGWYRQAPGKERELVAAITGGGSTYYADSVKGRFTISRDNAKNTVYLQMNSLKPEDTAVYYCAAVWTYWYYGDDYWGQGTQVTVSS”, the “polyreactivity (PSR sort gate)” value was “low polyreactivity”.
Consider “QVQLVESGGGLVQAGGSLRLSCADSGRTFVGNAMGWYRQAPGKGWEFVAAISRSGGSTNYADSVKGRFTISRDNAKNTVYLQMKSLKPEDTAVYYCAARDRFGGIRRYIYWGQGTQVTVSS”, for which the “polyreactivity (PSR sort gate)” value is recorded as “high polyreactivity”.
Consider “QVQLVESGGGLVQAGGSLRLSCADSGRTFYHYAMGWYRQAPGKERELVATITSSGGNTYYADSVKGRFTISRDNAKNTVYLQINSLKPEDTAVYYCAADWFVYQYSFGSSEYYYWGQGTQVTVSS”, for which the “polyreactivity (PSR sort gate)” value is listed as “low polyreactivity”.
On to “QVQLVESGGGLVQAGGSLRLSCADSGRTQWSYAIGWYRQAPGKERELVATISYSGGSTYYADSVKGRFTISRDNAKNTVYLQMNSLKPEATAVYYCNAVARWYVLQVYEYDYWGEGTQVTVSS”, for which the “polyreactivity (PSR sort gate)” value is recorded as “low polyreactivity”.
Regarding “QVQLVESGGGLVQAGGSLRLSCADSGRTSYYYVMGWYRQAPGKERELVAAIRSRGGSTYYADSVKGRFTISRDNAKNTVYLQMNSLKPEDTAVYYCAARYGFWSYDFGYWGLGTQVTVSS”, the “polyreactivity (PSR sort gate)” value is on record as “high polyreactivity”.
In the case of “QVQLVESGGGLVQAGGSLRLSCADSGSIFIANAMGWYRPAPGKERELVAAIDSGGSTNYADSVKGRFTSSRDNAKNTVYLQMNSLKPEDTAVYYCAADGTLTAPGGDYWGQGTQVTVSS”, the “polyreactivity (PSR sort gate)” value is “high polyreactivity”.
On to “QVQLVESGGGLVQAGGSLRLSCADSGSIFKYYAMGWYRQAPGKERELDASISWSGGTTYYADSVKGRFTISRDNAKNTVYLQMNSLKPEDTAVYYCNARWWVRYSNKYDYWGQGTQVTVSS”, for which the “polyreactivity (PSR sort gate)” value is reported as “high polyreactivity”.
With “QVQLVESGGGLVQAGGSLRLSCADSGSIFRRNAMGWYRQAPGKERELVAGIRGSGGSTYYADSVKGRFTISRDNAKNTVYLQMNSLKPEDTAVYYCAARRSYYHGSYDYWGQGTQVTVSS”, the “polyreactivity (PSR sort gate)” value is given as “high polyreactivity”.
